Measured values from article PMC10464462.

Target: His-E-cadherin fusion protein (UniProt P12830)
Test: MST; RED-NHS-labelled His-E-cadherin at constant concentration (1 µM) with 2-fold serial dilutions of GST-KRT18 in MST-optimized buffer; 15 min at room temperature; Monolith NT.115; 20 and 40% MST power

UniProt P12830, sequence (P12830 155-882): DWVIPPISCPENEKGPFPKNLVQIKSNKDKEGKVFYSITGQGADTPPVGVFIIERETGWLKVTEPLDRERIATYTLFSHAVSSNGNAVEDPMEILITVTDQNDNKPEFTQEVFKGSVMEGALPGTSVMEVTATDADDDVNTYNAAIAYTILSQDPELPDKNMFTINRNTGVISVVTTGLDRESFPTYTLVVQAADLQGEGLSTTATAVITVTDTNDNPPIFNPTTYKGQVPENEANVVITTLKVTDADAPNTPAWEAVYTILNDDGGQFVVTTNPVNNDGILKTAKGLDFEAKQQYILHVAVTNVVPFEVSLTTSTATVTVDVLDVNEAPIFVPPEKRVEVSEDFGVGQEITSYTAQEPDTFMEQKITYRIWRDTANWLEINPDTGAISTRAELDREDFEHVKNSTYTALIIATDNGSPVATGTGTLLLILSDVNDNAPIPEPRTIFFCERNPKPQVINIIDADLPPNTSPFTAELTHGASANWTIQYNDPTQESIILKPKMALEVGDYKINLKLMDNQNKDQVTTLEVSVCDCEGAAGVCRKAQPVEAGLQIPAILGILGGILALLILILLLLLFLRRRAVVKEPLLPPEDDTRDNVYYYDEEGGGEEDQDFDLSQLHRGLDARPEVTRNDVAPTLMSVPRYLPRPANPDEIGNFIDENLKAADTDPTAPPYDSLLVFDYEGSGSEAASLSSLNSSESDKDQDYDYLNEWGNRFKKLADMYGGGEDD

Kd: 5.6 µM
B1: GST-KRT18 fusion protein (natural protein)
chain: MSFTTRSTFSTNYRSLGSVQAPSYGARPVSSAASVYAGAGGSGSRISVSRSTSFRGGMGSGGLATGIAGGLAGMGGIQNEKETMQSLNDRLASYLDRVRSLETENRRLESKIREHLEKKGPQVRDWSHYFKIIEDLRAQIFANTVDNARIVLQIDNARLAADDFRVKYETELAMRQSVENDIHGLRKVIDDTNITRLQLETEIEALKEELLFMKKNHEEEVKGLQAQIASSGLTVEVDAPKSQDLAKIMADIRAQYDELARKNREELDKYWSQQIEESTTVVTTQSAEVGAAETTLTELRRTVQSLEIDLDSMRNLKASLENSLREVEARYALQMEQLNGILLHLESELAQTRAEGQRQAQEYEALLNIKVKLEAEIATYRRLLEDGEDFNLGDALDSSNSMQTIQKTTTRRIVDGKVVSETNDTKVLRH
